B1: Conjugate 19: antibody BIIB059 reacted with Compound 9 "to give Conjugate 19"; 4.75 by LC-MS (conjugate, chains of the INN, looked up)
VH: DVQLVESGGGLVKPGGSLRLSCAASGFTFSTYTMSWVRQAPGKGLEWVATISPGDSFGYYYPDSVQGRFTISRDNAKNSLYLQMNSLRAEDTAVYYCTRDIYYNYGAWFAYWGQGTLVTVSS
VL: DIQLTQSPSSLSASVGDRVTITCKASQSVDYDGDSYMNWYQQKPGKAPKLLIYAASTLESGVPSRFSGSGSGTDFTLTISSLQPEDFATYYCQQANEDPRTFGQGTKVEIK
modifications: Compound 9 conjugate
notes: antibody BIIB059 reacted with Compound 9 "to give Conjugate 19"; 4.75 by LC-MS
B2: Conjugate 20: antibody BIIB059 reacted with Compound 16 "to give Conjugate 20"; 4.27 by LC-MS (conjugate, chains of the INN, looked up)
VH: B1 VH
VL: B1 VL
modifications: conjugated to Compound 16
notes: antibody BIIB059 reacted with Compound 16 "to give Conjugate 20"; 4.27 by LC-MS
B3: Conjugate 21: antibody BIIB059 reacted with Compound 15 "to give Conjugate 21"; 4.30 by LC-MS (conjugate, chains of the INN, looked up)
VH: B1 VH
VL: B1 VL
modifications: Compound 15 conjugate
notes: antibody BIIB059 reacted with Compound 15 "to give Conjugate 21"; 4.30 by LC-MS

Key:
Assay type in all cases: cell-based
human PBMC cells [1] = assay: TNF-α secretion from PBMC under R848 stimulation (compounds); conditions: R848 5 μM, 24 hours, mean ± standard deviation
Experimental: (§1) The compounds of the present application were tested for their inhibitory effect on the production of peripheral blood monocytes. The peripheral blood monocytes were treated in vitro with the ligand-drug conjugate at different concentrations, and IFNα and TNFα generated by the peripheral blood monocytes were quantitatively detected after a certain time. The compounds of the present invention were evaluated for in-vitro activity.
(§2) The cryopreserved human PBMC cells were resuspended in a complete medium and counted, and the cell suspension was adjusted to 2.5×10*6 cells/mL with the culture medium. After the suspension was centrifuged to collect the cells the next day, the cells were resuspended using fresh culture medium. Test compounds were diluted to 4-fold final concentration in cell culture medium, 50 μL of the compounds were added into a 96-well cell plate, and 100 μL of diluted cells ([…]) were added into each well of the 96-well plate containing the compounds, followed by addition of 50 μL R848 to a final concentration of 5 μM. The cell plate was incubated at 37° C. with 5% CO2 for 24 hours. The supernatant was collected, and the TNF-α and IFN-α concentration levels in the supernatant were detected using an ELISA kit.
TNF-α concentration assay was performed using Dakewe TNF-α ELISA kit (Cat #1117202), 100 μL of the serially-diluted cytokine standard was added into each well, 100 μL of the above supernatant diluted 10-fold was added into each well, and 100 μL of 1× dilution buffer R was added into each blank well. 50 μL of biotinylated antibody working solution was added into each well. After mixing well, the plate was covered with the plate-sealing membrane and incubated at room temperature for 3 hours. The plate was washed for 3 times: the liquid in each well was discarded, and 300 μL of 1× washing buffer working solution was added into each well; after 1 minute of residence, the liquid in the wells was discarded. The procedure was repeated for 3 times. 100 μL of Streptavidin-HRP working solution was added into each well. The plate was covered with the plate-sealing membrane and incubated at room temperature for 20 minutes. The plate was washed for 3 times, 100 μL of TMB liquid was added into each well, and the plate was incubated for 25 minutes at room temperature (18-25° C.) in the dark. The reaction was stopped by adding 100 μL stop solution rapidly to each well. The reading at a wavelength of 450 nm was detected by an M2e instrument within 10 minutes after termination.
(§3) The contents of TNF-α and IFN-α were calculated from the OD450 values.

human PBMC cells [2] = assay: IFN-α secretion from PBMC under R848 stimulation (compounds); conditions: R848 5 μM, 24 hours, mean ± standard deviation
Experimental: as §1, §2
50 μL of biotinylated antibody working solution was added into each well. After mixing well, the plate was covered with the plate-sealing membrane and incubated at room temperature for 3 hours. […] The procedure was repeated for 3 times. 100 μL of Streptavidin-HRP working solution was added into each well. The plate was covered with the plate-sealing membrane and incubated at room temperature for 20 minutes. The plate was washed for 3 times, 100 μL of TMB liquid was added into each well, and the plate was incubated for 25 minutes at room temperature (18-25° C.) in the dark. The reaction was stopped by adding 100 μL stop solution rapidly to each well. The reading at a wavelength of 450 nm was detected by an M2e instrument within 10 minutes after termination.
as §3

human PBMC cells [3] = assay: R848-induced IL6 release from PBMCs (drug conjugates, FIG. 1c); conditions: incubation concentration 300 nm
Experimental: (§4) 1a: R848-induced IFNα release from PBMCs; 1b: R848-induced TNFα release from PBMCs; 1c: R848-induced IL6 release from PBMCs, 1d: R848-induced IL8 release from PBMCs.
(§5) The inhibitory effect of the ligand-drug conjugate (ADC) of the present application on the production of IFNα by peripheral blood monocytes was examined. The peripheral blood monocytes were treated in vitro with the ligand-drug conjugate at different concentrations, and IFNα and TNFα generated by the peripheral blood monocytes were quantitatively detected after a certain time. The ligand-drug conjugates were evaluated for in-vitro activity.
(§6) The cryopreserved human PBMC cells were resuspended in a complete medium and counted, and the cell suspension was adjusted to 2.5×10*6 cells/mL with the culture medium. After the suspension was centrifuged to collect the cells the next day, the cells were resuspended using fresh culture medium, and 100 μL of diluted cells ([…]) were added into a 96-well plate. The test samples were diluted to 3-fold final stimulation concentration using fresh culture medium, 50 μL of the diluted test samples were added into the 96-well cell plate, and the cell plate was incubated at 37° C. with 5% CO2 for 12 hours, followed by addition of 50 μL 20 μM R848 each well. The cell plate was incubated at 37° C. with 5% CO2 for 20 hours. The supernatant was collected, and the cytokine concentration in the supernatant was detected using a kit.
IL-6 concentration assay was performed using Dakewe IL-6 ELISA kit (Cat #DKW12-1060-096), 100 μL of serially-diluted cytokine standard was added into each well, 100 μL of the above supernatant diluted 2-fold was added into each well, and 100 μL of 1× dilution buffer R was added into each blank well. 50 μL of biotinylated antibody working solution was added into each well. After mixing well, the plate was covered with the plate-sealing membrane and incubated at room temperature for 3 hours. […] The reading at a wavelength of 450 nm was detected by an M2e instrument within 10 minutes after termination.

human PBMC cells [4] = assay: R848-induced IFNα release from PBMCs (drug conjugates, FIG. 1a); conditions: incubation concentration 300 nm
Experimental: as §4, §5, §6
(§7) IFN-α concentration assay was performed using Dakewe […] ELISA kit (Cat #1110012), 100 μL of the serially-diluted cytokine standard was added into each well, 100 μL of the above supernatant diluted 2-fold was added into each well, and 100 μL of 1× dilution buffer R was added into each blank well. 50 μL of biotinylated antibody working solution was added into each well. After mixing well, the plate was covered with the plate-sealing membrane and incubated at room temperature for 3 hours. […] The reading at a wavelength of 450 nm was detected by an M2e instrument within 10 minutes after termination.

human PBMC cells [5] = assay: R848-induced TNFα release from PBMCs (drug conjugates, FIG. 1b); conditions: incubation concentration 300 nm
Experimental: as §4, §5, §6
as §7, with “TNF-α” for “IFN-α”, “#1117202),” for “#1110012),”, “10-fold” for “2-fold”

human PBMC cells [6] = assay: R848-induced IL8 release from PBMCs (drug conjugates, FIG. 1d); conditions: incubation concentration 300 nm
Experimental: as §4, §5, §6
IL-8 concentration assay was performed using Dakewe IL-8 ELISA kit (Cat #1110802), 100 μL of the serially-diluted cytokine standard was added into each well, 100 μL of the above supernatant diluted 2-fold was added into each well, and 100 μL of 1× dilution buffer R was added into each blank well. 50 μL of biotinylated antibody working solution was added into each well. After mixing well, the plate was covered with the plate-sealing membrane and incubated at room temperature for 3 hours. […] The reading at a wavelength of 450 nm was detected by an M2e instrument within 10 minutes after termination.

| Molecule | TNF-α secretion (pg/mL) from PBMC under R848 stimulation (human PBMC cells [1]; compound 4 nM) [pg/mL] | TNF-α secretion (pg/mL) from PBMC under R848 stimulation (human PBMC cells [1]; compound 20 nM) [pg/mL] | TNF-α secretion (pg/mL) from PBMC under R848 stimulation (human PBMC cells [1]; compound 100 nM) [pg/mL] | IFN-α secretion (pg/mL) from PBMC under R848 stimulation (human PBMC cells [2]; compound 4 nM) [pg/mL] | IFN-α secretion (pg/mL) from PBMC under R848 stimulation (human PBMC cells [2]; compound 20 nM) [pg/mL] | IFN-α secretion (pg/mL) from PBMC under R848 stimulation (human PBMC cells [2]; compound 100 nM) [pg/mL] | IL-6 contents in the detection system (human PBMC cells [3]) [pg/mL] | IFN-α contents in the detection system (human PBMC cells [4]) [pg/mL] | TNF-α contents in the detection system (human PBMC cells [5]) [pg/mL] | IL-8 contents in the detection system (human PBMC cells [6]) [pg/mL] |
| --- | --- | --- | --- | --- | --- | --- | --- | --- | --- | --- |
| C[C@@H]1C[C@H]2[C@@H]3CCC4=CC(=O)C=C[C@]4(C)[C@@]3(F)[C@@H](O)C[C@]2(C)[C@@]1(O)C(=O)CO [Dexamethasone, dexamethasone, reference compound] | 1446.5 | 761.9 | 396.4 | 620.7 ± 70.4 | 169.6 ± 94.4 | 0 ± 0 | – | – | – | – |
| C[C@]12C=CC(=O)C=C1CC[C@@H]1[C@@H]2[C@@H](O)C[C@@]2(C)[C@H]1C[C@H]1O[C@@H](c3ccc(Cc4cccc(N)c4)cc3)O[C@]12C(=O)CO [Compound 14] | 868 | 465.6 | 471.9 | – | 10.2 ± 10.2 | 13 ± 13 | – | – | – | – |
| B1 | – | – | – | – | – | – | 8861.7 | 113.2 | 761.8 | 26565.5 |
| B2 | – | – | – | – | – | – | 34744.1 | 1422.5 | 3280.0 | 56315.8 |
| B3 | – | – | – | – | – | – | 29867.1 | 911.9 | 2644.1 | 43544.9 |
